Experimental data taken from US20150010574A1 (Boehringer Ingelheim, published 2015).

How the values were obtained:
[1] = molecular target: T1, human IGF-1 (human, UniProt P05019 49-118); experiment: cell-based or functional assay
[2] = molecular target: T2, human IGF-2 (human, UniProt P01344 25-91); experiment: cell-based or functional assay
[3] = molecular target: T2, human IGF-2; experiment: cell-based or functional assay; remark: listed apart in the source
[4] = molecular target: T1, human IGF-1; experiment: cell-based or functional assay; remark: listed apart in the source
[5] = molecular target: T2, human IGF-2; experiment: cell-based or functional assay; remark: listed apart in the source
[6] = molecular target: T1, human IGF-1; experiment: electrochemiluminescence-based equilibrium titration (BioVeris)
[7] = molecular target: T3, rat IGF-2 (rat, UniProt P01346 25-91); experiment: SPR (Biacore 3000), antibody captured by anti-human Fc, IGF antigen flowed, 25 C
T3 construct: Bought recombinant protein
Description: (§1) The sensor chip is coated with approximately 1000 RU of the reference antibody in flow cell 1 and approximately 1000 RU of a rabbit-anti-human Fc-gamma-specific antibody in flow cell 2 using the coupling reagents from an amine coupling kit. A target of 1000 RU is set in the surface preparation wizard of the Biacore 3000 software at a flow rate of 5 μl/min Running buffer used is HBS-EP. […] Blank runs using running buffer only are run in-between. A blank run curve is subtracted from each binding curve before affinity analysis. Data evaluation is performed using the BIAevaluation software (version 4.1, Biacore, Freiburg, Germany). The dissociation and association phases of the kinetics are fitted separately. For the separate fit of the kdiss values a time-frame of the initial 200-300 seconds in the dissociation phase is used (range of steady decrease of signal). For the separate fit of the kₐₛₛ values, initial time frames of approx 100 seconds are used (range of steady increase of signal) and for calculation the individual kdiss values are used with the 1:1 Langmuir association model. The average values with the standard deviations of the kinetic data together with the corresponding dissociation (KD) and association (KA) constants are calculated.

[8] = molecular target: T1, human IGF-1; experiment: as above
Description: as §1

[9] = molecular target: T4, mouse IGF-1 (mouse, UniProt P05017 49-118); experiment: as above
T4 construct: Bought recombinant protein; also called murine IGF-1
Description: as §1

[10] = molecular target: T5, rat IGF-1 (rat, UniProt P08025 49-118); experiment: as above
T5 construct: Bought recombinant protein
Description: as §1

[11] = molecular target: T2, human IGF-2; experiment: as above
Description: as §1

[12] = molecular target: T6, mouse IGF-2 (mouse, UniProt P09535 25-91); experiment: as above
T6 construct: Bought recombinant protein; also called murine IGF-2
Description: as §1

[13] = molecular target: T7, human insulin (human, UniProt P01308 25-54; P01308 90-110); experiment: direct ELISA, human insulin coated at 3 ug/ml, anti-human IgG-HRPO, OD 450 nm
T7 construct: Bought (Roche); coated at 3 ug/ml in the ELISA
Description: Fully human IgG1 antibodies that bound with high affinity to IGF-1 are also tested for binding to human IGF-1 in direct immunosorbent assays (ELISA). Assays are performed by coating human IGF-1 (R&D Systems, No. 291-G1) to 96-well Maxisorb plates at a concentration of 0.5 μg/ml overnight at 4° C. (100 μl/well). Coating buffer alone is used as a control for unspecific binding. Wells are then washed once with washing buffer (1×TBS-T) and residual binding sites are blocked with 200 μl blocking buffer for 1 hour at room temperature on an orbital shaker followed by a further wash cycle. Serial three-fold dilutions of each test antibody in blocking buffer are prepared directly on the coated plates. […] Blocking buffer alone is used as a positive control. The plates are then incubated for 2 hours at room temperature with agitation. After three wash cycles 100 μl/well of HRPO-conjugated anti-human IgG secondary reagent (Jackson ImmunoResearch Inc.) diluted in blocking buffer is added to all wells. After 2 hours incubation at room temperature with agitation the plates are washed three-times and 100 μl/well of TMB substrate solution (equal amounts of solution A and B) are pipetted into all wells. The plates are incubated for 10-20 min at RT with agitation and then the reaction is stopped by addition of 100 μl/well 1 M phosphoric acid. The absorbance is measured at a wavelength of 450 nm (reference 650 nm).

[14] = molecular target: T5, rat IGF-1; experiment: direct ELISA, rat IGF-1 coated on the plate, anti-human IgG-HRPO, OD 450 nm
Description: (§2) Fully human IgG1 antibodies that bound with high affinity to IGF-1 are also tested for binding to human IGF-1 in direct immunosorbent assays (ELISA). Assays are performed by coating human IGF-1 (R&D Systems, No. 291-G1) to 96-well Maxisorb plates at a concentration of 0.5 μg/ml overnight at 4° C. (100 μl/well). Coating buffer alone is used as a control for unspecific binding. Wells are then washed once with washing buffer (1×TBS-T) and residual binding sites are blocked with 200 μl blocking buffer for 1 hour at room temperature on an orbital shaker followed by a further wash cycle. Serial three-fold dilutions of each test antibody in blocking buffer are prepared directly on the coated plates. […] Blocking buffer alone is used as a positive control. The plates are then incubated for 2 hours at room temperature with agitation. After three wash cycles 100 μl/well of HRPO-conjugated anti-human IgG secondary reagent (Jackson ImmunoResearch Inc.) diluted in blocking buffer is added to all wells. After 2 hours incubation at room temperature with agitation the plates are washed three-times and 100 μl/well of TMB substrate solution (equal amounts of solution A and B) are pipetted into all wells. […] The absorbance is measured at a wavelength of 450 nm (reference 650 nm).

[15] = molecular target: T3, rat IGF-2; experiment: direct ELISA, rat IGF-2 coated on the plate, anti-human IgG-HRPO, OD 450 nm
Description: as §2

[16] = molecular target: T4, mouse IGF-1; experiment: direct ELISA, mouse IGF-1 coated on the plate, anti-human IgG-HRPO, OD 450 nm
Description: as §2

[17] = molecular target: T6, mouse IGF-2; experiment: direct ELISA, mouse IGF-2 coated on the plate, anti-human IgG-HRPO, OD 450 nm
Description: as §2

T7 sequence (P01308 25-54 limits assumed, chain 1 of 2): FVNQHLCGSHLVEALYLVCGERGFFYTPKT
T7 sequence (P01308 90-110 limits assumed, chain 2 of 2): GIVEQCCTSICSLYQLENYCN
T1 sequence (P05019 49-118): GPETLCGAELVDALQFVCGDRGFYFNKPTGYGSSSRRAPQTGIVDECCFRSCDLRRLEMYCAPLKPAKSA
T4 sequence (P05017 49-118 limits assumed): as the sequence (P05019 49-118) above, with D20P, S35I, A67T, S69A counted along it
T5 sequence (P08025 49-118 limits assumed): as the sequence (P05019 49-118) above, with D20P, S35I, A67T counted along it
T6 sequence (P09535 25-91 limits assumed): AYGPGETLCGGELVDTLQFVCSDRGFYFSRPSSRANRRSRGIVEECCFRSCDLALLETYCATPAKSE
T3 sequence (P01346 25-91 limits assumed): as the sequence (P09535 25-91 limits assumed) above, with G3R, G5S counted along it
T2 sequence (P01344 25-91 limits assumed): as the sequence (P09535 25-91 limits assumed) above, with G3R, G5S, S22G, S32A, A35V, N36S counted along it

B1: antibody 60833 (antibody, human IgG1, lambda, V domains shown)
VH: QVELVESGGGLVQPGGSLRLSCAASGFTFTSYWMSWVRQAPGKGLELVSSITSYGSFTYYADSVKGRFTISRDNSKNTLYLQMNSLRAEDTAVYYCARNMYTHFDSWGQGTLVTVSS
VL: DIVLTQPPSVSGAPGQRVTISCSGSSSNIGSNSVSWYQQLPGTAPKLLIYDNSKRPSGVPDRFSGSKSGTSASLAITGLQSEDEADYYCQSRDTYGYYWVFGGGTKLTVLG
notes: Fully human IgG1 with Ig lambda light chain
B1 was tested, and the “IC50 of IGF-1 (20 ng/mL) induced IGF-1R phosphorylation, cell based ELISA” value [1] was 0.09 µg/mL, the “IC50 of IGF-2 (100 ng/mL) induced IGF-1R phosphorylation, cell based ELISA” value [2] was 1.12 µg/mL and the “IC50 of IGF-2 (100 ng/mL) induced IR-A phosphorylation, cell based ELISA” value [3] was 0.82 µg/mL. The “IC50 of IGF-1 induced COLO-205 cell proliferation” value [4] was 0.165 µg/mL, the “IC50 of IGF-1 induced MCF7 cell proliferation” value [4] was 0.0386 µg/mL and the “IC50 of IGF-2 induced COLO 205 cell proliferation” value [5] was 0.632 µg/mL. For the same binder, the “IC50 of IGF-2 induced MCF7 cell proliferation” value [5] was 0.0812 µg/mL, the Kd [6] was 130 pM and the Kd [7] was 2410 pM. The koff [7] was 0.00613 s⁻¹, the kon [7] was 2.56e+06 M⁻¹ s⁻¹ and the Kd [8] was 70 pM. It also gave a koff [8] of 0.000301 s⁻¹, a kon [8] of 4.74e+06 M⁻¹ s⁻¹ and a Kd [9] of 330 pM. It also gave a koff [9] of 0.000323 s⁻¹, a kon [9] of 1e+06 M⁻¹ s⁻¹ and a Kd [10] of 70 pM. The koff [10] was 0.000253 s⁻¹, the kon [10] was 3.81e+06 M⁻¹ s⁻¹ and the Kd [11] was 913 pM. It also gave a koff [11] of 0.00353 s⁻¹, a kon [11] of 3.97e+06 M⁻¹ s⁻¹ and a Kd [12] of 13400 pM. For the same binder, the koff [12] was 0.011 s⁻¹, the kon [12] was 868000 M⁻¹ s⁻¹ and the binding result [13] was “no binding (tested: 50 ng/mL)”.

B2: antibody 60814 (antibody, human IgG1, lambda, V domains shown)
VH: QVELVESGGGLVQPGGSLRLSCAASGFTFSNYWMHWVRQAPGKGLEWVSGISGWSSWTYYADSVKGRFTISRDNSKNTLYLQMNSLRAEDTAVYYCARFGIDAYTKVYFDYWGQGTLVTVSS
VL: DIELTQPPSVSVAPGQTARISCSGDNIPLKYVSWYQQKPGQAPVLVIHDDNKRPSGIPERFSGSNSGNTATLTISGTQAEDEADYYCSSWDTLDIFNVFGGGTKLTVLG
notes: as for B1
In the case of B2, the “IC50 of IGF-1 induced COLO-205 cell proliferation” value [4] is reported as 0.135 µg/mL, the “IC50 of IGF-1 induced MCF7 cell proliferation” value [4] is reported as 0.0241 µg/mL and the “IC50 of IGF-2 induced COLO 205 cell proliferation” value [5] is reported as 0.576 µg/mL. The “IC50 of IGF-2 induced MCF7 cell proliferation” value [5] was 0.0782 µg/mL, the Kd [6] was 180 pM and the binding result [14] was “binds”. B2: binds [15]; binds [16]; binds [17]. B2: no binding (tested: 50 ng/mL) [13].

B3: antibody 60819 (antibody, human IgG1, lambda, V domains shown)
VH: QVELVESGGGLVQPGGSLRLSCAASGFTFSNYWMHWVRQAPGKGLEWVSGISGWSSWTYYADSVKGRFTISRDNSKNTLYLQMNSLRAEDTAVYYCARFGIDAYTKVYFDYWGQGTLVTVSS
VL: DIELTQPPSVSVAPGQTARISCSGDNIPLKYVSWYQQKPGQAPVLVIHDDNKRPSGIPERFSGSNSGNTATLTISGTQAEDEADYYCQSYDYFPKFVVFGGGTKLTVLG
notes: as for B1
In the case of B3, the “IC50 of IGF-1 induced COLO-205 cell proliferation” value [4] is reported as 0.217 µg/mL, the “IC50 of IGF-1 induced MCF7 cell proliferation” value [4] is reported as 0.054 µg/mL and the “IC50 of IGF-2 induced COLO 205 cell proliferation” value [5] is reported as 0.101 µg/mL. The “IC50 of IGF-2 induced MCF7 cell proliferation” value [5] was 0.0408 µg/mL, the Kd [6] was 190 pM and the binding result [14] was “binds”. B3: binds [15]; binds [16]; binds [17]. B3: no binding (tested: 50 ng/mL) [13].
